# Experimental data: article PMC5458757 (Genes & Development, 2017)
# T1: human SIAH1-SBD (91–282) (human, UniProt Q8IUQ4-1 91-282)
# T1 sequence (looked up): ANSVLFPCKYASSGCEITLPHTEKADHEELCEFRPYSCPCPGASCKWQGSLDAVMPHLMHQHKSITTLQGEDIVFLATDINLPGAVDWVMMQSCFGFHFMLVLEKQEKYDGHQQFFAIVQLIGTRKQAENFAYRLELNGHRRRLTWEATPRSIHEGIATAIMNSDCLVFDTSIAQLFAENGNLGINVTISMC
# Key:
# human SIAH1-SBD (91–282) [1] = target: T1, human SIAH1-SBD (91–282); experiment: ITC
# human SIAH1-SBD (91–282) [2] = target: T1, human SIAH1-SBD (91–282); experiment: pull-down
Kd (human SIAH1-SBD (91–282) [1]),binding result (human SIAH1-SBD (91–282) [2]),Binder
5.6 µM,–,"YRVPKEVRVEPQKFAEELIH (peptide, UniProt O15169-1 375-394, looked up) [20-residue human AXIN1 peptide (residues 375–394)]"
–,binds,"GST-tagged AXIN1 (353–436) (domain or fragment, human, UniProt O15169-1 353-436, looked up) RREMQESVQVNGRVPLPHIPRTYRVPKEVRVEPQKFAEELIHRLEAVQRTREAEEKLEERLKRVRMEEEGEDGDPSSGPPGPCH"
